Assay results reported in PMC8591229.
Bridge positions count the residues as written; N and C are the ends. Ends that are not written are not given here.

Target: T1, human islet amyloid polypeptide (IAPP) (human) (not fully specified)
T1 chain: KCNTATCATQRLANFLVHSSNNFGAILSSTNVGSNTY
Test: seeded thioflavin T fluorescence aggregation kinetics; 5 uM monomeric IAPP with preformed IAPP fibril seeds at 0 to 33% (monomer equivalents), 33 mM acetate, 150 mM KCl, pH 5.3, 37 C, quiescent; elongation (monomer added to fibril ends) from the initial gradient at 33% seeds and the fibril length by cryo-TEM
Details: remark: other sources report otherwise

An elongation rate constant k+ of 500000 M⁻¹ s⁻¹ was found for KCNTATCATQRLANFLVHSSNNFGAILSSTNVGSNTY-NH2 (disulfide 2-7 (inferred); not fully specified) [human islet amyloid polypeptide (IAPP)] in this work.
